Measured values: publication PMC9482650, “Quantitative fragmentomics allow affinity mapping of interactomes” (Nature Communications, 2022)

Legend:
Test in all cases: holdup assay
Design in all cases: key: below the threshold = too weak to quantify, mostly under pKd 3.1 to 4
[1] = target: IL16_3, Q14005
[2] = target: T1, APBA3_1, O96018
T1 sequence (O96018 389-490, limits assumed, looked up): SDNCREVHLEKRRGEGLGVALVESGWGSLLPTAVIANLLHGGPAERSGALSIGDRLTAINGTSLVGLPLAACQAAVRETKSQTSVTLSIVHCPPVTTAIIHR

[3] = target: GRIP2_6, Q9C0E4
[4] = target: GRIP2_4, Q9C0E4
[5] = target: T2, DFNB31_1, Q9P202
T2 sequence (Q9P202 135-233, limits assumed, looked up): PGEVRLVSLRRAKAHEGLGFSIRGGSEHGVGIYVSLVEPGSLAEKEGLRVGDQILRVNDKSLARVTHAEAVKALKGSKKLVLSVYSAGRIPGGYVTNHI

[6] = target: T3, TIAM2, Q8IVF5
T3 sequence (Q8IVF5 885-986, limits assumed, looked up): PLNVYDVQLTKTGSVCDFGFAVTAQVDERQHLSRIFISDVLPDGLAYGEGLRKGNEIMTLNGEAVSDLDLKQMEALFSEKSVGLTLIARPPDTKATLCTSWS

[7] = target: FRMPD3, Q5JV73
[8] = target: MAGI2_2, Q86UL8
[9] = target: T4, DLG3_2, Q92796
T4 sequence (Q92796 221-321, limits assumed, looked up): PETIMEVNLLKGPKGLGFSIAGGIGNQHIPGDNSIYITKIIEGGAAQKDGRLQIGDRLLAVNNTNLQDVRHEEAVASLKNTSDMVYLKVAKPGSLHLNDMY

[10] = target: T5, GRIP1_4, Q9Y3R0
T5 sequence (Q9Y3R0 467-571, limits assumed, looked up): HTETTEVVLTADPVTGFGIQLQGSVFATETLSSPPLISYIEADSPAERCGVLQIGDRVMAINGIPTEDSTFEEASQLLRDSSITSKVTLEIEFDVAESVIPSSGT

[11] = target: T6, RADIL, Q96JH8
T6 sequence (Q96JH8 971-1071, limits assumed, looked up): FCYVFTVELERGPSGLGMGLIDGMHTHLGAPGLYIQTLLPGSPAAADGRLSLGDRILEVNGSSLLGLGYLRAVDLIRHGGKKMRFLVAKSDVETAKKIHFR

[12] = target: GRID2IP_2, A4D2P6
[13] = target: LNX1_2, Q8TBB1
[14] = target: PICK1, Q9NRD5
[15] = target: Inadl_9, Q8NI35
[16] = target: IL16_4, Q14005
[17] = target: T7, MPP2, Q14168
T7 sequence (Q14168 180-250, limits assumed, looked up): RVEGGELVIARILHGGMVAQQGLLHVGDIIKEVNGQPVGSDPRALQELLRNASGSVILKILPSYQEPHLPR

[18] = target: DLG5_1, Q8TDM6
[19] = target: TJP1_3, Q07157
[20] = target: T8, DFNB31_3, Q9P202
T8 sequence (Q9P202 811-907, limits assumed, looked up): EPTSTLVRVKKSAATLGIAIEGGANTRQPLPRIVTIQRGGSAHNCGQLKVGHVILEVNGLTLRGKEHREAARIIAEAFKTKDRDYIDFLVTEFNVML

[21] = target: T9, MPDZ_12, O75970
T9 sequence (O75970 1857-1958, limits assumed, looked up): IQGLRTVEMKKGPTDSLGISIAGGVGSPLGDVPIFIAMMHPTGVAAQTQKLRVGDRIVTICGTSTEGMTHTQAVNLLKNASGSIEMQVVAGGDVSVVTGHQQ

[22] = target: GORASP2, Q9H8Y8
[23] = target: NOS1, P29475
[24] = target: T10, HTRA3, P83110
T10 sequence (P83110 354-453, limits assumed, looked up): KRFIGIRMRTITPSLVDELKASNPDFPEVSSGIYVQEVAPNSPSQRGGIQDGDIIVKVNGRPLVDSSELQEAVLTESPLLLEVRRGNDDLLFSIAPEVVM

[25] = target: T11, PDZRN3_1, Q9UPQ7
T11 sequence (Q9UPQ7 244-349, limits assumed, looked up): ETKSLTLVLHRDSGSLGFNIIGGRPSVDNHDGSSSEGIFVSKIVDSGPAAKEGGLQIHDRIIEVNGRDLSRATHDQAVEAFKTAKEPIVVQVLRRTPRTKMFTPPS

[26] = target: GRASP, Q7Z6J2
[27] = plain residues with an end cap or a label only (N-terminal biotin on a linker: ahx)
[28] = plain residues with an end cap or a label only (N-terminal biotin on a linker: ttds)

Sequence of IL16_3, Q14005 (Q14005 1107-1207): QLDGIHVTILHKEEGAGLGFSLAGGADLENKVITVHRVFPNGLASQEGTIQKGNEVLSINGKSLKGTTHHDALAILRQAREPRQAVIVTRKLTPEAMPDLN
Sequence of GRIP2_4, Q9C0E4 (Q9C0E4 446-548): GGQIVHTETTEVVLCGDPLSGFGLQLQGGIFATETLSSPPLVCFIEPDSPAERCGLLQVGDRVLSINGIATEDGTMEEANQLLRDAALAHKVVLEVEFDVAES
Sequence of DLG5_1, Q8TDM6 (Q8TDM6 617-713): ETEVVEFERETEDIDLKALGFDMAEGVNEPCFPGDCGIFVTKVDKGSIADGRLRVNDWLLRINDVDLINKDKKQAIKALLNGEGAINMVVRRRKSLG
Sequence of TJP1_3, Q07157 (Q07157 416-512): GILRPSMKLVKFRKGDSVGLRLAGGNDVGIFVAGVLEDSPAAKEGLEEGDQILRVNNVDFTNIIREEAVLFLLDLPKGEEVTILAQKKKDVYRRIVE
Sequence of MAGI2_2, Q86UL8 (Q86UL8 410-522): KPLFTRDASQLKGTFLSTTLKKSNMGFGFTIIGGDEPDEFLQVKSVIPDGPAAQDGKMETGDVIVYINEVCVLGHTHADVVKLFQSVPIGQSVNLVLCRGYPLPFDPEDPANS
Sequence of FRMPD3, Q5JV73 (Q5JV73 12-100): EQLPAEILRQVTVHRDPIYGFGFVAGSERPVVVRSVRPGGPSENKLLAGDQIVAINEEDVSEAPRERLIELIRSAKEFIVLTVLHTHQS
Sequence of GRASP, Q7Z6J2 (Q7Z6J2 96-193): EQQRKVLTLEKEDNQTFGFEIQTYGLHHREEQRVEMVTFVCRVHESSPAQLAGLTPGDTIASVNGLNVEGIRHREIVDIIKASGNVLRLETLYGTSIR
Sequence of GRIP2_6, Q9C0E4 (Q9C0E4 648-740): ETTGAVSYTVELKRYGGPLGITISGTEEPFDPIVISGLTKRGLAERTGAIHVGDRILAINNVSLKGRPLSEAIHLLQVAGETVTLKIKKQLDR
Sequence of PICK1, Q9NRD5 (Q9NRD5 17-115): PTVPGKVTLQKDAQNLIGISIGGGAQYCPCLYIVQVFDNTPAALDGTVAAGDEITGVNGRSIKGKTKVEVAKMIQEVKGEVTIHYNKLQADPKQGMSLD
Sequence of NOS1, P29475 (P29475 9-101): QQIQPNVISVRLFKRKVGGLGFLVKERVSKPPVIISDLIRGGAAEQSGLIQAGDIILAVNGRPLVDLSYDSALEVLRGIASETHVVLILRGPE
Sequence of Inadl_9, Q8NI35 (Q8NI35 1530-1615): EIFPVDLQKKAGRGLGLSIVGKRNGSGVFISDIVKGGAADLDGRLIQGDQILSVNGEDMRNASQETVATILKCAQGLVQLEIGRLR
Sequence of GRID2IP_2, A4D2P6 (A4D2P6 272-370): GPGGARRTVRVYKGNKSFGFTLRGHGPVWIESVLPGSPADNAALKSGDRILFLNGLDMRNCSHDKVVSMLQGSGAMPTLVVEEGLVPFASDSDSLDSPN
Sequence of IL16_4, Q14005 (Q14005 1229-1329): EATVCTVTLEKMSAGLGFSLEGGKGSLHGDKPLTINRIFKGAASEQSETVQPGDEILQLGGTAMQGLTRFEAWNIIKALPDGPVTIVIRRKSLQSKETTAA
Sequence of LNX1_2, Q8TBB1 (Q8TBB1 371-470): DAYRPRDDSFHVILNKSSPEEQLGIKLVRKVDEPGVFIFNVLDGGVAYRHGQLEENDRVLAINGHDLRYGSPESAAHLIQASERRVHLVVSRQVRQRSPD

B1: RAPGEF2, Q9Y4G8 (peptide)
chain: EDEDEQVSAV
pKd [1, 27]: below the threshold
pKd [2, 27]: below the threshold
pKd [3, 27]: below the threshold
pKd [4, 27]: below the threshold
pKd [5, 27]: below the threshold
pKd [6, 27]: below the threshold
pKd [7, 27]: below the threshold
pKd [8, 27]: below the threshold
pKd [9, 27]: 3.87
pKd [10, 27]: below the threshold
pKd [11, 27]: below the threshold
pKd [12, 27]: 4.28
pKd [13, 27]: below the threshold
pKd [14, 27]: below the threshold
pKd [15, 27]: below the threshold
pKd [16, 27]: below the threshold
pKd [17, 27]: below the threshold
pKd [18, 27]: below the threshold
pKd [19, 27]: below the threshold
pKd [20, 27]: below the threshold
pKd [21, 27]: below the threshold
pKd [22, 27]: below the threshold
pKd [23, 27]: 3.67
pKd [24, 27]: below the threshold
pKd [25, 27]: below the threshold
pKd [26, 27]: 4.86

B2: NRXN1, Q9ULB1 (peptide)
chain: KKNKDKEYYV
pKd [1, 27]: below the threshold
pKd [2, 27]: below the threshold
pKd [3, 27]: 3.91
pKd [4, 27]: below the threshold
pKd [5, 27]: below the threshold
pKd [6, 27]: 4.11
pKd [7, 27]: 3.5
pKd [8, 27]: 3.67
pKd [9, 27]: below the threshold
pKd [10, 27]: below the threshold
pKd [11, 27]: 4.2
pKd [12, 27]: below the threshold
pKd [13, 27]: 3.58
pKd [14, 27]: below the threshold
pKd [15, 27]: 3.97
pKd [16, 27]: below the threshold
pKd [17, 27]: 3.69
pKd [18, 27]: below the threshold
pKd [19, 27]: below the threshold
pKd [20, 27]: below the threshold
pKd [21, 27]: below the threshold
pKd [22, 27]: 4.33
pKd [23, 27]: 3.57
pKd [24, 27]: 4.2
pKd [25, 27]: below the threshold
pKd [26, 27]: below the threshold

B3: KCNA5, P22460 (peptide)
chain: CLDTSRETDL
pKd [1, 28]: below the threshold
pKd [2, 28]: below the threshold
pKd [3, 28]: 3.54
pKd [4, 28]: below the threshold
pKd [5, 28]: 3.84
pKd [6, 28]: below the threshold
pKd [7, 28]: below the threshold
pKd [8, 28]: below the threshold
pKd [9, 28]: 4.35
pKd [10, 28]: below the threshold
pKd [11, 28]: below the threshold
pKd [12, 28]: 3.7
pKd [13, 28]: below the threshold
pKd [14, 28]: below the threshold
pKd [15, 28]: below the threshold
pKd [16, 28]: below the threshold
pKd [17, 28]: below the threshold
pKd [18, 28]: below the threshold
pKd [19, 28]: below the threshold
pKd [20, 28]: below the threshold
pKd [21, 28]: below the threshold
pKd [22, 28]: 3.58
pKd [23, 28]: below the threshold
pKd [24, 28]: below the threshold
pKd [25, 28]: 4.38
pKd [26, 28]: below the threshold

B4: PDLIM7, Q9NR12;Q9NR12-1 (peptide)
chain: LCKSHAFSHV
pKd [1, 27]: below the threshold
pKd [2, 27]: below the threshold
pKd [3, 27]: below the threshold
pKd [4, 27]: below the threshold
pKd [5, 27]: below the threshold
pKd [7, 27]: below the threshold
pKd [8, 27]: 4.11
pKd [9, 27]: below the threshold
pKd [10, 27]: below the threshold
pKd [11, 27]: 3.99
pKd [13, 27]: below the threshold
pKd [14, 27]: below the threshold
pKd [15, 27]: below the threshold
pKd [16, 27]: below the threshold
pKd [17, 27]: below the threshold
pKd [18, 27]: below the threshold
pKd [19, 27]: below the threshold
pKd [20, 27]: below the threshold
pKd [21, 27]: below the threshold
pKd [22, 27]: below the threshold
pKd [24, 27]: below the threshold
pKd [25, 27]: below the threshold
